Results from patent US20220249679A1 (Mitsubishi Tanabe Pharma Corporation, priority 2018, published 2022).

Assays:
human CD138 = biological target: T1, human CD138 (Homo sapiens, UniProt P18827); assay: FACS binding to Expi293 cells transfected with human CD138; details: 3-fold dilutions from 33.3 μg/mL
T1 sequence (P18827 23-310): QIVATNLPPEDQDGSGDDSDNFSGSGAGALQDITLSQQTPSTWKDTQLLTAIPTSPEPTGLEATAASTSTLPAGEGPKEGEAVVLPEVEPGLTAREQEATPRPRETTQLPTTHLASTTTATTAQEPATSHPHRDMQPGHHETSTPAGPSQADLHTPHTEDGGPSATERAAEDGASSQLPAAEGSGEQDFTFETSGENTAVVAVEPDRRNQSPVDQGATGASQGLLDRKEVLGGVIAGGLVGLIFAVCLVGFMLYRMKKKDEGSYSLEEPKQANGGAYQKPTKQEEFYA
Description: (§1) 12P16F6 hIgG1 or 13P30A7 hIgG1 were tested for cross-reactivity to cynomolgus monkey CD138. Antibodies that cross-react with CD138 from cynomolgus monkey (cyno) have an advantage that they can be tested for toxicity in this strain of non-human primate prior to conducting efficacy trials. Briefly, a vector directing the cell-surface expression of human CD138 or cyno CD138 was transfected in Expi293 cells. Binding of 12P16F6 hIgG1 and 13P30A7 hIgG1 to transfected Expi293 cells was tested at 3-fold dilutions starting at 33.3 μg/mL.

cyno CD138 = assay: FACS binding to Expi293 cells transfected with cyno CD138; set-up: species or system cynomolgus monkey; details: 3-fold dilutions from 33.3 μg/mL
Description: as §1

cyno CD138, sequence (as listed by the source): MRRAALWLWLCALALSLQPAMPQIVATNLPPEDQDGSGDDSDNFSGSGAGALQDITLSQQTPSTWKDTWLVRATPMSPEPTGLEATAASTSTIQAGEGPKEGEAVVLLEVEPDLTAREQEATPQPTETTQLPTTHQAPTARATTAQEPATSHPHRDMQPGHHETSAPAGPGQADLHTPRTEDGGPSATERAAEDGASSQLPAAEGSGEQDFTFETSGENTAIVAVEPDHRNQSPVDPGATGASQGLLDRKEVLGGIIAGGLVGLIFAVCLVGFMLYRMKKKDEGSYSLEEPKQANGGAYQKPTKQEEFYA

For Secukinumab [reference compound], the “binding to human CD138 expressing cells” value (human CD138) was “little or no specific binding” and the “binding to cynomolgus CD138 expressing cells” value (cyno CD138) was “little or no specific binding”.
